# Tested on: O=[N+]([O-])c1ccc(O[C@@H]2O[C@H](CO)[C@@H](O)[C@H](O)[C@H]2O)cc1
# Assay: purified protein
# Details: 50 mM sodium acetate pH 5.5, 55 °C
Substance,Km,kcat
WT-AtGH1 (Acetivibrio thermocellus ATCC 27405; S242L),1790 ± 110 µM,7.0875 s⁻¹
WT-AtGH1 (Acetivibrio thermocellus ATCC 27405; G168W),2230 ± 130 µM,9.1175 s⁻¹
WT-AtGH1 (Acetivibrio thermocellus ATCC 27405; G168W/S242L),1320 ± 110 µM,12.38 s⁻¹
WT-AtGH1 (Acetivibrio thermocellus ATCC 27405),2420 ± 170 µM,10.08 s⁻¹
WT-AtGH1 (Acetivibrio thermocellus ATCC 27405; S242W),2100 ± 100 µM,27.115 s⁻¹
